Results on one substance are retold here after PMC4174873.

For orientation: stoichiometry N means a count of units in the complex or per binding partner.

For the assay, the target named is CTBMPR (not stated | Human immunodeficiency virus 1 (HIV-1)) (UniProt P01556). Description: SEC. (In general: Size exclusion chromatography separates by hydrodynamic size, large species first.)

CTBMPR (from UniProt P01556 22-124) yielded a stoichiometry N of 5.
